Here are results for two molecules from patent US20210062165A1 (TRUSTEES OF PRINCETON UNIVERSITY, published 2021).

In data set [1] the target is T1, FUS^N-Citrine-PixE fusion protein.
T1 construct: Expressed inside S. cerevisiae cells (strains YEZ231, YEZ232, YEZ555); The listing entry is DNA, not protein; also called FUS^NPixE; EZ-L498
The data set is described as follows: microscopy of co-clustering in yeast strain YEZ555, dark against blue light.

Data set [2] concerns the molecule itself. The data set is described as follows: microscopy of self-clustering in yeast (YEZ53), light against dark.
Experimental: Yeast strains were cultured overnight in a 24 well plate covered with foil. SC media was used to avoid the high auto-fluorescence of YPD. The following day, cultures were diluted 1:20 and allowed to grow for 2 hours such that the cells were in exponential phase. Wells of the microscopy plate were coated using 1 mg/mL Concanavalin A (Sigma) dissolved in 20 mM sodium acetate. After washing wells with ddH2O, yeast cultures were transferred and spun down at 1000 rpm for 3 min. All imaging was carried out using a 60X oil immersion objective (NA 1.4) on a Nikon A1 laser scanning confocal microscope. The laser was used at two different wavelengths: 488 nm for activation of Cry2 and 551 nm for visualization of FusionRed. […] Laser settings were 40% intensity for 488 nm and 30% intensity for 561 nm. Exposure times for both wavelengths was 200 ms.

B1: sFUS-FusionRed-PixD fusion protein (other)
chain: MASNDYTQQATQSYGAYPTQPGQGYSQQSSQPYGQQSYSGYSQSTDTSGYGQSSYSSYGQSQNTGYGTQSTPQGYGSTGGYGSSQSSQSSYGQQGGGMVSELIKENMPMKLYMEGTVNNHHFKCTSEGEGKPYEGTQTMRIKVVEGGPLPFAFDILATSFMYGSRTFIKHPPGIPDFFKQSFPEGFTWERVTTYEDGGVLTATQDTSLQDGCLIYNVKVRGVNFPANGPVMQKKTLGWEASTETMYPADGGLEGACDMALKLVGGGHLICNLETTYRSKKPATNLKMPGVYNVDHRLERIKEADDETYVEQHEVAVARYSTGGAGDGGKAATRMSLYRLIYSSQGIPNLQPQDLKDILESSQRNNPANGITGLLCYSKPAFLQVLEGECEQVNETYHRIVQDERHHSPQIIECMPIRRRNFEVWSMQAITVNDLSTEQVKTLVLKYSGFTTLRPSAMDPEQCLNFLLDIAKIYELSDNFFLDL
notes: Expressed inside S. cerevisiae cells (strain YEZ555). sFUS is the first 93 amino acids of the FUS^N domain; The listing entry is DNA, not protein; also called sFUS-FR-PixD; EZ-L767
Consider B1, for which the binding result in data set [1] is reported as “binds”.

B2: FUS^N-FusionRed-Cry2 fusion protein (other)
chain: MASASNDYTQQATQSYGAYPTQPGQGYSQQSSQPYGQQSYSGYSQSTDTSGYGQSSYSSYGQSQNTGYGTQSTPQGYGSTGGYGSSQSSQSSYGQQSSYPGYGQQPAPSSTSGSYGSSSQSSSYGQPQSGSYSQQPSYGGQQQSYGQQQSYNPPQGYGQQNQYNSSSGGGGGGGGGGNYGQDQSSMSSGGGSGGGYGNQDQSGGGGSGGYGQQDRGGGGMVSELIKENMPMKLYMEGTVNNHHFKCTSEGEGKPYEGTQTMRIKVVEGGPLPFAFDILATSFMYGSRTFIKHPPGIPDFFKQSFPEGFTWERVTTYEDGGVLTATQDTSLQDGCLIYNVKVRGVNFPANGPVMQKKTLGWEASTETMYPADGGLEGACDMALKLVGGGHLICNLETTYRSKKPATNLKMPGVYNVDHRLERIKEADDETYVEQHEVAVARYSTGGAGDGGKAATRMKMDKKTIVWFRRDLRIEDNPALAAAAHEGSVFPVFIWCPEEEGQFYPGRASRWWMKQSLAHLSQSLKALGSDLTLIKTHNTISAILDCIRVTGATKVVFNHLYDPVSLVRDHTVKEKLVERGISVQSYNGDLLYEPWEIYCEKGKPFTSFNSYWKKCLDMSIESVMLPPPWRLMPITAAAEAIWACSIEELGLENEAEKPSNALLTRAWSPGWSNADKLLNEFIEKQLIDYAKNSKKVVGNSTSLLSPYLHFGEISVRHVFQCARMKQIIWARDKNSEGEESADLFLRGIGLREYSRYICFNFPFTHEQSLLSHLRFFPWDADVDKFKAWRQGRTGYPLVDAGMRELWATGWMHNRIRVIVSSFAVKFLLLPWKWGMKYFWDTLLDADLECDILGWQYISGSIPDGHELDRLDNPALQGAKYDPEGEYIRQWLPELARLPTEWIHHPWDAPLTVLKASGVELGTNYAKPIVDIDTARELLAKAISRTREAQIMIGAAARDPPVATGSGSGSG
notes: Expressed inside S. cerevisiae cells (strains YEZ53, yNS47); The listing entry is DNA, not protein; also called optoDroplets; optoDroplet
Take B2: the binding result in data set [2] is given as “binds”.
